Laboratory results as given in IntAct's records for PubMed 31515488.

B1: Transcription factor 12 (Homo sapiens), Q99081 (parent)
chain: MNPQQQRMAAIGTDKELSDLLDFSAMFSPPVNSGKTRPTTLGSSQFSGSGIDERGGTTSWGTSGQPSPSYDSSRGFTDSPHYSDHLNDSRLGAHEGLSPTPFMNSNLMGKTSERGSFSLYSRDTGLPGCQSSLLRQDLGLGSPAQLSSSGKPGTAYYSFSATSSRRRPLHDSAALDPLQAKKVRKVPPGLPSSVYAPSPNSDDFNRESPSYPSPKPPTSMFASTFFMQDGTHNSSDLWSSSNGMSQPGFGGILGTSTSHMSQSSSYGNLHSHDRLSYPPHSVSPTDINTSLPPMSSFHRGSTSSSPYVAASHTPPINGSDSILGTRGNAAGSSQTGDALGKALASIYSPDHTSSSFPSNPSTPVGSPSPLTGTSQWPRPGGQAPSSPSYENSLHSLQSRMEDRLDRLDDAIHVLRNHAVGPSTSLPAGHSDIHSLLGPSHNAPIGSLNSNYGGSSLVASSRSASMVGTHREDSVSLNGNHSVLSSTVTTSSTDLNHKTQENYRGGLQSQSGTVVTTEIKTENKEKDENLHEPPSSDDMKSDDESSQKDIKVSSRGRTSSTNEDEDLNPEQKIEREKERRMANNARERLRVRDINEAFKELGRMCQLHLKSEKPQTKLLILHQAVAVILSLEQQVRERNLNPKAACLKRREEEKVSAVSAEPPTTLPGTHPGLSETTNPMGHM
partner: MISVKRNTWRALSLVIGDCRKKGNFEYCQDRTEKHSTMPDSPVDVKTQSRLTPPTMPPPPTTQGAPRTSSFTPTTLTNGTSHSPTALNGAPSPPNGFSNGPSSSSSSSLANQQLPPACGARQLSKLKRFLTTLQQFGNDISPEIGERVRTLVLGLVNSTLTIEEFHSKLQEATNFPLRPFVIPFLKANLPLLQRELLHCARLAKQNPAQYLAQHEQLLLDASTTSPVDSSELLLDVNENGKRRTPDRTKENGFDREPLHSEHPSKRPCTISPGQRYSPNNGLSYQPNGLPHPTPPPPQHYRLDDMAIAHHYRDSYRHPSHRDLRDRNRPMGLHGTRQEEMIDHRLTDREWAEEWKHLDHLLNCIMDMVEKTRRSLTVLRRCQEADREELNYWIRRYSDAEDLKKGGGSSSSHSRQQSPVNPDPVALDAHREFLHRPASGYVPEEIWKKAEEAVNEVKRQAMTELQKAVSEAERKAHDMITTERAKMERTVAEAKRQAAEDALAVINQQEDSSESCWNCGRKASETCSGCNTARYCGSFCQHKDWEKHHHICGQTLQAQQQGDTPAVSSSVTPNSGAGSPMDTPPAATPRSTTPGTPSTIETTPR
B2: Protein LDOC1 (Homo sapiens), O95751 (parent)
chain: MVDELVLLLHALLMRHRALSIENSQLMEQLRLLVCERASLLRQVRPPSCPVPFPETFNGESSRLPEFIVQTASYMLVNENRFCNDAMKVAFLISLLTGEAEEWVVPYIEMDSPILGDYRAFLDEMKQCFGWDDDEDDDDEEEEDDY
partner: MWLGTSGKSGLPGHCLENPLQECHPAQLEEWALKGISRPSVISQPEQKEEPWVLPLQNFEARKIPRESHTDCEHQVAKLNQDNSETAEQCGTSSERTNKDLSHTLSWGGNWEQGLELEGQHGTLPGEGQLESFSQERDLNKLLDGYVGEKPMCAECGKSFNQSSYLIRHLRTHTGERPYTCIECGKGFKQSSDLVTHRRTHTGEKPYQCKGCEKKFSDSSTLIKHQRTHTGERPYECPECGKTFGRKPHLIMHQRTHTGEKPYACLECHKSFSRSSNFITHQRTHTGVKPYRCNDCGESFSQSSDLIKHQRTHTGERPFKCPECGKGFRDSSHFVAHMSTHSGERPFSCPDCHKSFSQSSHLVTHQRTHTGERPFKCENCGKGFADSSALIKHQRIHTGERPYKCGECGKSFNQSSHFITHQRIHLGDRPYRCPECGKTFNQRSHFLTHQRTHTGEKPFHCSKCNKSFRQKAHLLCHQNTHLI
B3: Four and a half LIM domains protein 2 (Homo sapiens), Q14192 (parent)
chain: MTERFDCHHCNESLFGKKYILREESPYCVVCFETLFANTCEECGKPIGCDCKDLSYKDRHWHEACFHCSQCRNSLVDKPFAAKEDQLLCTDCYSNEYSSKCQECKKTIMPGTRKMEYKGSSWHETCFICHRCQQPIGTKSFIPKDNQNFCVPCYEKQHAMQCVQCKKPITTGGVTYREQPWHKECFVCTACRKQLSGQRFTARDDFAYCLNCFCDLYAKKCAGCTNPISGLGGTKYISFEERQWHNDCFNCKKCSLSLVGRGFLTERDDILCPDCGKDI
partner: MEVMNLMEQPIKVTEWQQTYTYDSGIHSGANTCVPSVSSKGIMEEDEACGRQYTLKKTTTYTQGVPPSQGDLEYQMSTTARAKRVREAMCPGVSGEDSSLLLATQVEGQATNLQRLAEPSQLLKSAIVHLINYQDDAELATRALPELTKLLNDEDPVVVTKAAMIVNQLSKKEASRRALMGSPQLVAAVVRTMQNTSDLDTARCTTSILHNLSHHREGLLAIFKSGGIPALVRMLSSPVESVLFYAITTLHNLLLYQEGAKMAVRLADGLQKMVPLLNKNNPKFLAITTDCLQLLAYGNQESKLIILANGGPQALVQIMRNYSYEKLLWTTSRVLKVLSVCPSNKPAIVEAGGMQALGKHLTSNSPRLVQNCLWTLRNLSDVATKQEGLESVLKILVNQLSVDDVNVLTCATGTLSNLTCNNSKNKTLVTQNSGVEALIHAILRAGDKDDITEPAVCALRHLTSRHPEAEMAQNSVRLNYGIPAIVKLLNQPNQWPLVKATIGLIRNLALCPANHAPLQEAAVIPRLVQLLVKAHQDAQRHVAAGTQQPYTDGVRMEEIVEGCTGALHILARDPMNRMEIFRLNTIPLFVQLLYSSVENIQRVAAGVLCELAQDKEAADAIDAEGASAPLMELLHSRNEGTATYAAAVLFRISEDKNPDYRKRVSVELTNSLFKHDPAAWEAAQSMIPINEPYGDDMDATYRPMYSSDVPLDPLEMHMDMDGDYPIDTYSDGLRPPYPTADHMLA
B4: Beta-taxilin (Homo sapiens), Q8N3L3 (parent)
chain: MEANHSEQLSAERQSTPPGDSSSLPSHNGLEKEDGQDSPTPVQPPEKEASVHPDISEELNRQLEDIINTYGSAASTAGKEGSARASEQPENAESPDNEDGDCEETTEEAGREPVASGEPPTVKEPVSNKEQKLEKKILKGLGKEANLLMQNLNKLQTPEEKFDFLFKKYAELLDEHRTEQKKLKLLQKKQVQIQKEKDQLQGEHSRAILARSKLESLCRELQRHNKTLKEEALQRAREEEEKRKEITSHFQSTLTDIQGQIEQQSERNMKLCQENTELAEKLKSIIDQYELREEHLDKIFKHRELQQKLVDAKLEQAQEMMKEAEERHKREKEYLLNQAAEWKLQAKVLKEQETVLQAQLTLYSGRFEEFQSTLTKSNEVFATFKQEMDKTTKKMKKLEKDTATWKARFENCNKALLDMIEEKALRAKEYECFVMKIGRLENLCRALQEERNELHKKIRDAEISEKDDQSQHNSDEEPESNVSVDQEIDAEEVNSVQTAVKNLATAFMIIHHPESTPHQSKETQPEIGSSQESADAALKEPEQPPLIPSRDSESPLPPLTPQAEAEGGSDAEPPSKASNSPAGLGAETQCEGLPVGAQADQASWKPEAEASGQAPQAPTEASLQKMEADVPAPACAAEEHVAAMVPACEPSRQPPRAAAEELPVGASAGPQPRNVADTNLEGVD
partner: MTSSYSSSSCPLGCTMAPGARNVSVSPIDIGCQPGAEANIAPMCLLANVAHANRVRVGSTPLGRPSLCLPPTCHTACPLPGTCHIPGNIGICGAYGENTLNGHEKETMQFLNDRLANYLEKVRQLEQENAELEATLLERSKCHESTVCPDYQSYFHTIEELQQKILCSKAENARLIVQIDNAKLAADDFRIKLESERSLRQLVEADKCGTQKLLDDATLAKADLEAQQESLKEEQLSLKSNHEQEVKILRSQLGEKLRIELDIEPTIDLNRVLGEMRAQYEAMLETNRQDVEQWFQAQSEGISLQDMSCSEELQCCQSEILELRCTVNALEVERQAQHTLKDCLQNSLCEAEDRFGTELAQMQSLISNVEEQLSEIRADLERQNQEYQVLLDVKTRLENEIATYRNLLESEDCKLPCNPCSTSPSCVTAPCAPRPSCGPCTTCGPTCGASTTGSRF
B5: Sperm-associated microtubule inner protein 4 (Homo sapiens), Q8N865 (parent)
chain: MEVIHGRPYCCRELEGADILSNTFYSNELHNPLQTVTRPTASEDRYQELRESLQQCRLPWGAEREYGGIIPISLPEDHRPKYEPPRVMGKGHQHYGFGGETWPRKLPVEQFYYLTQNKKSDVYGNDSLIPKPPNSTVGEICLPYPIEHPYHTHICRGAMFPTFTSPEDLYTGIKARTQQPFPPTVPTKAYDSTVLKTRGNPYRYELIDIPMDSKKKALTWPGQGVYYDFPRGVEKNKPVFYPKPPKTFAPNTSLNSWDPICSAKEANIQRNLERSHWLTSYTHDFTGLGPMDPLELDDYHEKMVAELTRKIGFDPEPQEKFHPVFKPPRPLEGRIARLIQNRRSLEAIVQQRPRSCPDCTPRVLCNFHTFVPSSKEMVALSDNIPAGVTHKNQDIEEKIIEEQSLLSTYELPSCYPTKDLTSIYDIKPFPKITDTKKTEDLYWRQQSLKTQPTPYCKPDHWIHYENLKSPLRDQYNMCPDPVSLSKPSVLQNKQDTEAFTLEHFLSKPEEELFLNMENNEETRPVLGWIPRAGVTKPQTNLLELKNSFSKTGAQKRFHKSILEDHKDLRDNEHSGMKHQFYGHNSYYFYN
partner: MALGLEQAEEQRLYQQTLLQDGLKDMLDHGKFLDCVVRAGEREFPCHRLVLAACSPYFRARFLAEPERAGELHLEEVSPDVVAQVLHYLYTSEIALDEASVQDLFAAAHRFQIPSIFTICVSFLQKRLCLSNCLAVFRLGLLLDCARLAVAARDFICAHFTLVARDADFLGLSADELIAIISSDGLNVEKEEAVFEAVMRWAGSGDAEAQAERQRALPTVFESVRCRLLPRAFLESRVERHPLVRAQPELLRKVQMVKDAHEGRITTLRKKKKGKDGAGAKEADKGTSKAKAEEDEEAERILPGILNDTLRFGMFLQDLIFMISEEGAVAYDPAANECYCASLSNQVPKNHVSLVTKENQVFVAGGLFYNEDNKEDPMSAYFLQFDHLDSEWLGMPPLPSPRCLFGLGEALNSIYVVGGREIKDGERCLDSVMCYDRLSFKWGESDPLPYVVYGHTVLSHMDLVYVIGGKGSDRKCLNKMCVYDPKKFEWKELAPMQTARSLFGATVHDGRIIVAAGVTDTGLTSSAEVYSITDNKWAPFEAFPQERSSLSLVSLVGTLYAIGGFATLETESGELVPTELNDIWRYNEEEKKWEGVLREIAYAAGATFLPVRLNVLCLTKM

Variants of: B1
Conditions: with mtg8_human RUNX1T1, Q06455

Row | Variant | effect of a mutation on the interaction
1 | L483R | with no effect
2 | A174V | with no effect
3 | D565V | with no effect
4 | A458V | with no effect
5 | V31A | with no effect

Variants of: B2
Conditions: with zn774_human ZNF774, Q6NX45

Row | Variant | effect of a mutation on the interaction
6 | L12H | disrupting interaction strength

Variants of: B3
Conditions: with plak_human JUP

Row | Variant | effect of a mutation on the interaction
7 | A37S | with no effect
8 | N95K | disrupting interaction strength

Variants of: B4
Conditions: with krt38_human KRT38, O76015

Row | Variant | effect of a mutation on the interaction
9 | I527T | with no effect

Variants of: B5
Conditions: with klh40_human KLHL40, Q2TBA0

Row | Variant | effect of a mutation on the interaction
10 | H300R | with no effect
11 | P238Q | with no effect
12 | A158T | with no effect
